Consider 1 substance from US20230331798A1 (JECHO LABORATORIES, published 2023).

Test [1] concerns the target T1, EPO receptor on TF-1 cells (human, UniProt P19235 25-508).
T1 sequence (looked up): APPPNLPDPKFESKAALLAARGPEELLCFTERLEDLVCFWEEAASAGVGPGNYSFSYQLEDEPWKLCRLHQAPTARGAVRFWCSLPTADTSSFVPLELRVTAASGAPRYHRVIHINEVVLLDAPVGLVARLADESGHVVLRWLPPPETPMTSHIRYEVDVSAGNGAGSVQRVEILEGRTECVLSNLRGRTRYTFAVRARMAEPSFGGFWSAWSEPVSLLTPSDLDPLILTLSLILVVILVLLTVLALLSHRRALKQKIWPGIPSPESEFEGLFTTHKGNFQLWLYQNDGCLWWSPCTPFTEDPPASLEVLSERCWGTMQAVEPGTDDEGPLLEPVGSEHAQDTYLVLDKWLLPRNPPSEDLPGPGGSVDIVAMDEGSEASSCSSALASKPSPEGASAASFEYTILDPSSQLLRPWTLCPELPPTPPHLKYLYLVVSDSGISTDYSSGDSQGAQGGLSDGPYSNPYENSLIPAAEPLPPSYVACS
The experiment in a line: cell-based or functional assay.

Test [2] concerns the target EPO receptor (Sinobiological, 10707-H08H) (UniProt P19235). The experiment in a line: SPR, Biacore 8K, 25 C.

For the substance “Darbepoetin (Darbe, lot #1078765A) (ligand)”, in test [1], the EC50 (ng/ml), TF-1 cell proliferation (MTS, absorbance at 490 nM) was determined as 11.4 ng/mL. In test [2], the equilibrium dissociation constant (Kd) turned out to be 8.35 nM.
